The text below walks through data of US20060246421A1.

The target of the assay is wild-type NS3 protein of hepatitis C virus (hepatitis C virus) (UniProt Q9WMX2). Put plainly: cell-based or functional assay.

Substance “D290A NS3 (ATPase-deficient mutant NS3 protein) (from UniProt Q9WMX2 1027-1657)” came in with a fold decrease in activity of the HCV-Luc replicon (luciferase) in Huh-7 cells, 48 h of 9 fold.
